Experimental data from IntAct's records for PubMed 25910212.

B1: Inactive peptidyl-prolyl cis-trans isomerase FKBP6 (Homo sapiens), O75344 (parent)
chain: MGGSALNQGVLEGDDAPGQSLYERLSQRMLDISGDRGVLKDVIREGAGDLVAPDASVLVKYSGYLEHMDRPFDSNYFRKTPRLMKLGEDITLWGMELGLLSMRRGELARFLFKPNYAYGTLGCPPLIPPNTTVLFEIELLDFLDCAESDKFCALSAEQQDQFPLQKVLKVAATEREFGNYLFRQNRFYDAKVRYKRALLLLRRRSAPPEEQHLVEAAKLPVLLNLSFTYLKLDRPTIALCYGEQALIIDQKNAKALFRCGQACLLLTEYQKARDFLVRAQKEQPFNHDINNELKKLASCYRDYVDKEKEMWHRMFAPCGDGSTAGES
partner: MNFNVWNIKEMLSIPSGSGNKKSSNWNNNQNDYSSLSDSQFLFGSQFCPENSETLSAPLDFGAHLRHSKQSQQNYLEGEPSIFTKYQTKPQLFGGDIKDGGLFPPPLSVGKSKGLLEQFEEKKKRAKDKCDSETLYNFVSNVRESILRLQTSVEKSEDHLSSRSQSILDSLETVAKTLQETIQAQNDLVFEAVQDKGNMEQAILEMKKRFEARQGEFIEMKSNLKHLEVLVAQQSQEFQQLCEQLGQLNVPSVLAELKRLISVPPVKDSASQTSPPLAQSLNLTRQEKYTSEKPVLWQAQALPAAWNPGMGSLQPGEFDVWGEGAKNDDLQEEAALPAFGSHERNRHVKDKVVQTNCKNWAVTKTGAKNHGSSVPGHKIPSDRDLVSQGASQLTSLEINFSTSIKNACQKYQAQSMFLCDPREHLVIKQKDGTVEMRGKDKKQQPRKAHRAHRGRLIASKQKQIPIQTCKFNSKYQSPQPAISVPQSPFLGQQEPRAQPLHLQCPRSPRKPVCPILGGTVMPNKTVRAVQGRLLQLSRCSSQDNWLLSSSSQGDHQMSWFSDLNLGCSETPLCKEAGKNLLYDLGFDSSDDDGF
B2: Carbonic anhydrase-related protein (Homo sapiens), P35219 (parent)
chain: MADLSFIEDTVAFPEKEEDEEEEEEGVEWGYEEGVEWGLVFPDANGEYQSPINLNSREARYDPSLLDVRLSPNYVVCRDCEVTNDGHTIQVILKSKSVLSGGPLPQGHEFELYEVRFHWGRENQRGSEHTVNFKAFPMELHLIHWNSTLFGSIDEAVGKPHGIAIIALFVQIGKEHVGLKAVTEILQDIQYKGKSKTIPCFNPNTLLPDPLLRDYWVYEGSLTIPPCSEGVTWILFRYPLTISQLQIEEFRRLRTHVKGAELVEGCDGILGDNFRPTQPLSDRVIRAAFQ
B3: Retinol dehydrogenase 12 (Homo sapiens), Q96NR8 (parent)
chain: MLVTLGLLTSFFSFLYMVAPSIRKFFAGGVCRTNVQLPGKVVVITGANTGIGKETARELASRGARVYIACRDVLKGESAASEIRVDTKNSQVLVRKLDLSDTKSIRAFAEGFLAEEKQLHILINNAGVMMCPYSKTADGFETHLGVNHLGHFLLTYLLLERLKVSAPARVVNVSSVAHHIGKIPFHDLQSEKRYSRGFAYCHSKLANVLFTRELAKRLQGTGVTTYAVHPGVVRSELVRHSSLLCLLWRLFSPFVKTAREGAQTSLHCALAEGLEPLSGKYFSDCKRTWVSPRARNNKTAERLWNVSCELLGIRWE
B4: PiggyBac transposable element-derived protein 1 (Homo sapiens), Q96JS3 (parent)
chain: MYEALPGPAPENEDGLVKVKEEDPTWEQVCNSQEGSSHTQEICRLRFRHFCYQEAHGPQEALAQLRELCHQWLRPEMHTKEQIMELLVLEQFLTILPKELQPCVKTYPLESGEEAVTVLENLETGSGDTGQQASVYIQGQDMHPMVAEYQGVSLECQSLQLLPGITTLKCEPPQRPQGNPQEVSGPVPHGSAHLQEKNPRDKAVVPVFNPVRSQTLVKTEEETAQAVAAEKWSHLSLTRRNLCGNSAQETVMSLSPMTEEIVTKDRLFKAKQETSEEMEQSGEASGKPNRECAPQIPCSTPIATERTVAHLNTLKDRHPGDLWARMHISSLEYAAGDITRKGRKKDKARVSELLQGLSFSGDSDVEKDNEPEIQPAQKKLKVSCFPEKSWTKRDIKPNFPSWSALDSGLLNLKSEKLNPVELFELFFDDETFNLIVNETNNYASQKNVSLEVTVQEMRCVFGVLLLSGFMRHPRREMYWEVSDTDQNLVRDAIRRDRFELIFSNLHFADNGHLDQKDKFTKLRPLIKQMNKNFLLYAPLEEYYCFDKSMCECFDSDQFLNGKPIRIGYKIWCGTTTQGYLVWFEPYQEESTMKVDEDPDLGLGGNLVMNFADVLLERGQYPYHLCFDSFFTSVKLLSALKKKGVRATGTIRENRTEKCPLMNVEHMKKMKRGYFDFRIEENNEIILCRWYGDGIISLCSNAVGIEPVNEVSCCDADNEEIPQISQPSIVKVYDECKEGVAKMDQIISKYRVRIRSKKWYSILVSYMIDVAMNNAWQLHRACNPGASLDPLDFRRFVAHFYLEHNAHLSD
partner: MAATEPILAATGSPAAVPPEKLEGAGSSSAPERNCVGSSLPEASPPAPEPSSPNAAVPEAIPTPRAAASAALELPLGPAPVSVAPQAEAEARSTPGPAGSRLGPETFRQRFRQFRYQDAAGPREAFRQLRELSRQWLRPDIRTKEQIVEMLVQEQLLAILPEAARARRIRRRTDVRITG

Variants of: B1
Conditions: with iho1_human IHO1, Q8IYA8

| Variant | effect of a mutation on the interaction |
| --- | --- |
| R202H | with no effect |

Variants of: B2
Conditions: with int7_human INTS7, Q9NVH2
Chain of int7_human INTS7, Q9NVH2 (Q9NVH2 whole entry): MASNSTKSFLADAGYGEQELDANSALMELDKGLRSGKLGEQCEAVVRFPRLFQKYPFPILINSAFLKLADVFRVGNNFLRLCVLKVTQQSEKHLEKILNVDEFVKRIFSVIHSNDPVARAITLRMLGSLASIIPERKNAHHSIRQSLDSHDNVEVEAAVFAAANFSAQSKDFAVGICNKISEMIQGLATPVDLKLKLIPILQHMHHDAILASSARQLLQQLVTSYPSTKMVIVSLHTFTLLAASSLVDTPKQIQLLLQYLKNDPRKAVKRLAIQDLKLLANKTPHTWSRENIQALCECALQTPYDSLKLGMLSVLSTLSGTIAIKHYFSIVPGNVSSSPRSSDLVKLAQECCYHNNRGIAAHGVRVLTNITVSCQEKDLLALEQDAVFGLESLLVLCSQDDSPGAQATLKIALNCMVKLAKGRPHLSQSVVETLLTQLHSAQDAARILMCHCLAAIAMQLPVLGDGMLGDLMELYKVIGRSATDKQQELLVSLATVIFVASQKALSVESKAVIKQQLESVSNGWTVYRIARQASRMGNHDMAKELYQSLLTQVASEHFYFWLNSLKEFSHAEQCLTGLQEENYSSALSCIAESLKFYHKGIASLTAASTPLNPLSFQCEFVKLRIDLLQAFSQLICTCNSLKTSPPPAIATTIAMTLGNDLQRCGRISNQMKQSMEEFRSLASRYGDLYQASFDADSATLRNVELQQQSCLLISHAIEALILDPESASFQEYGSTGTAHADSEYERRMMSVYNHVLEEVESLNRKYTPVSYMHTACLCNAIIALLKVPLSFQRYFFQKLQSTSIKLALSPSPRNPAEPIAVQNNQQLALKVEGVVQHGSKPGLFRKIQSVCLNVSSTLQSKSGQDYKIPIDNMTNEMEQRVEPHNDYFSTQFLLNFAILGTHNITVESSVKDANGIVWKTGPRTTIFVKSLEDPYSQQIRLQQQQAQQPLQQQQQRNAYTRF

| Variant | effect of a mutation on the interaction |
| --- | --- |
| S100P | disrupting interaction strength |

Variants of: B2
Conditions: with crx_human CRX

| Variant | effect of a mutation on the interaction |
| --- | --- |
| S100P | disrupting interaction strength |

Variants of: B3
Conditions: with RBPMS

| Variant | effect of a mutation on the interaction |
| --- | --- |
| C285Y | with no effect |
| P230A | with no effect |
| L99I | with no effect |
| T49M | with no effect |

Variants of: B4
Conditions: with scnd1_human SCAND1, P57086

| Variant | effect of a mutation on the interaction |
| --- | --- |
| I678V | with no effect |
| H806D | with no effect |
| P256L | with no effect |
| G244E | with no effect |
| Q248E | with no effect |
